Results reported in the DeepSol protein solubility set.

Experiment: soluble on expression in E. coli; label from the status in PepcDB or PDB records

Soluble on expression in E. coli, not soluble:
MGSDKIHHHHHHKENNDFSSMQMKGVEQVSVKVDLDPAVERLSKAVQFRTISNQDRNDFDEKAFTDYHQFLEKAYPNVHKTLKREVLGSPRPFSLLYTWKGKDPSLPPALFYAHQDVVPVPSESRDQWAVDPFAGAVQDGYIWGRGVLDDKNQIHGILEAAEMKIKEGWQPSRTLYFVFGQDEEVGGPEGAKYIADVLEQRGIKRFAFVIDESAPLTPGIFPGIPDNTALIGIAQKGFVSLELAMNGIGGHSSQPPEESNIGILAKAITKLEAAQFPYRIHEAVRHQYRYMGPELSEDKQPMYAAVAFGKDGEITPLEQKFIDEMASQQVTRAMLHTTIAVTMFNAGIKDNVLPPSATAVVNFRPMPGDTPEVIIAHVKKAIGDDRITVRDISASTPATNVADPSSKSYQQLEKTIRQIYGNDLIVSPFFVIGGSDSKHFQARKFAPDVYTITGLQLESVKEFAGFHGVNERIRVDEYGRTIGFFYKLMDNLEEL
MGSDKIHHHHHHKGHRVTGSDANVYPPMSTQLEDQGIELIQGFDPSQLGEAGHYPDLVVIGNAMSRGNPCVEAVLNIGIPYTSGPQFLADHILPERWVLAVSGTHGKTSTSSMLAWILDDCGYEPGFLIGGVPQNFGVSARLGKTAFFVVEADEYDSAFFDKRSKFVHYHPRTLVINNLEFDHADIFADLAAIQKQFNHLVRTVPGEGKIVWPADSHAVKQTIDMGCWSEQETYHLAESANGWYGKALSDDCHRFEVFFDGESQGILEWDLIGQHNIENAMMAIAAARHVGVKPSAAIEALAKFMPPKRRLELLGTVNGVSVYDDFAHHPTAIATTLKGMRAKVGQSKITVVLEPRSNTMKSGVHKDTLAFSMMQADEAFLYQADTIDWNMKEAMEAAVIPVTVLHQIDDVVAKVTATAKAGDTIVVMSNGGFGGLHKKLLAALELRSTVELV
MGSDKIHHHHHHKLRDEGDAALKAKDYATVVTKYGEYLKQNNYQDTARIFNCGYAANQAKNYAEAAKYFDMAVKMNYNVDDSYVGEAMAYRNLNKTEEFLTTVKEGLKVIPDGNKNKTNLEKLLYGYCIKQGQAAQKKGDLAGAEKMYKEVLAVSNKDYQSNAYYSLGAMLYGNGAKILQAATPIATSEPDKYNAEKAKADKDFKQAKEYLTKAVELDPKDENSKKILASINDILK
MGSDKIHHHHHHKPGEVWPDDKGVHINAHGGGILRVGDTYYWFGEHKTEGSAGNLAQVGVHCYSSKDLYNWKDEGIALSVVPDDTTSHIVKGCVLERPKVIYNKKNDQYVMWFHLEPRGAGYSGALSGVAVSKNVAGPYSFVNAFRPNAGFWPVNVQELHKQPCTFSADLRFSGGELPAHPDSLNLLGRDQISGQMARDMNLFVDDDGIAYHIYSSEENSTLHISQLTDDYTSYSGKYARFFPGRFMEAPALFKQKGKYYLIMSGCTGWAPNAGRSAVASSIWGPWKELENPFRGENSEVSFYSQSTYVLPVPGHADRFIYMGDRWTPENAIDGRYIWLPIRFEGEQPVIEWRSEWSY
MGSDKIHHHHHHKTSSTQLPTIDAISSVADLTNAVNGVYEQQATEVGSYGAEFTLLADLRSGDFQSISTVNHAGPMYRYQTGKNDEMVYSFYKLFYNSLARLNNVLAAAENLEGADVDILKGELYAMRALYHFDLARVFAKLPSTTDMNDLGIVLSTEVYPTDYIGTRATLQQTYDQILKDIETALPLLSKDKQTGHINYWGALAIRARAYLYLEKNKEALADCKEIIASSPYKLYTRDEYIGAWDKEGTNEAIFEILVTPNYNAQRNSIGYFTHASGYGECAATESFLEELAKHPGDIRTELFAKETDNGYDGTYPQKYKGRDGQIYVNNPKVVRLSEVYLIAAEAALKAGDTSAAAGYMNTLRKNRIENYTDVASITLDDILLERRLELFTEGHTAWDAWRNGKSVNNKFVGEVKPGDYRTIMAIPIGEITVSRGQLIQNPGY
MGSDKIHHHHHHLIPVLDTDAWVEKLLSTRRSAEGKILAFYEHRMEAICRDPRLLLMPADDHLAHRGDGVFESMKFEGRRLYQLDAHLERMERSARGIYLTPPCTQSVLRDIVLQVARAADTPDGCIRILLGRGPGGFGIDPAECPVPSLYVVAYSLTPKPEEWYEKGVTAFRTSIPAKQGYLATIKNANYIPNVLMKLEARSRGCDIPVSFDENDFIAEGPTENLCLVDADGTLVVPEFTNALSGTTIMRVIDLVRDEMNVAFRKVREDELYRAAEVMVLGTTTECVSVVSFEGQPVGGGRPGPVARRFRELLRRDLAENGISF
MGSDKIHHHHHHLKICLSCSARFTDSGWRCPVCFSTPEQVDGFLSFAPAQAKSDEGFQPHHFNELAQAEAEHFWFRSRNRLIIWALHRFFPDARKFLEIGCGTGFVLSGIAQDNPRLEISGSEIHSAGLSHAADRARNATLFQMDARDIPFDSEFDVIGAFDVLEHIEEDSQVLLQMFRAISPGGGMIVTVPQHRFLWSQQDEHACHVRRYEAQELQDKVEKAGFRVEKATSFVSLLLPLMFISRLSKRKPVENYDPTQEFRIKKWVNTILEGILDLERLMIRGRVSFPMGGSRLLIARKPAGA
MGSDKIHHHHHHLPSARLSPRLSSPAGCRQTEWSQMPEAFIELRAITKRFSGVCALDALSLTINKGEIHCLAGENGSGKSTVIKVMAGVYQPDGGEILINGAPVRALTPIEAVRRNIQVIYQDFSLFGNLTVAENLALCGELQQKRKLADWKRIRAIGRQALDRLGVDIDLEVDVERLPTSSRQIVAIARALMSDAKLLIMDEPTTALTGREVDALFRIVKDIQAQGIAVLFVSHKMREMLEISERLTVIRNGRTVIDGPTSAFDESAVTRHMTGLDILSEGYAWAGSPEAVPRLEVRGLSLPGAFEDLSLAIRPGEIVGLSGLLGSGRTEFALSLFGMMPPAAGQVLVDGAQIAPRSVQDAIAEGITYVPEDRLTEGLFLTQSIDRNILATSYERLAPRGVIDRAKAAMQSAGMIKAMQIATPTGEKPVGQLSGGNAQRVVLARWLLTDAKVLILNGPTVGVDVGSKAEIHRKIRELASAHGLAVLMISDDVLELVQNTNRIVLMHRGRFVDDLPTATVSEQSINDLLKSFT
MGSDKIHHHHHHLSISIGSIKRAEAGKNILYRTLVQLSEFFHISIEDLIGDIPVSLWDYVRERPTQLIPCIGRDWELSLLQKLQLSSKTGLKTACVYGMQGLGKTSLVRHFLSRLDQTNWRALYLCSLDQGTFLRRFICTLLDISEIFDDEQLRFRIKMISTSPLVYFYLLRLSGLVLHKSELQAINNLSENRLHEVEVLSVMGLIQNFKQRKVSVLAIDSLHILNEGQLRVIKIFTQNMITQPILIIFSLTDVHRLLYLPDWLQSSNQIQLKPLQAIAMNALVNNEVEMNPCQPMKLAAYKKIVVQRARGNPLILKALIKSKRPDQDFPEEMVNSVQGMLTQLTGIECRLLQFLAACGPCVSIDTLELFNSQLSEPCICLLHRLVRIGFLYPRSECYIFRHILIWEIVKAQMNDSDTASVYSEQHNRLNA
MGSDKIHHHHHHLTNQMVYVYKDGKQVVSSQCVTGCIAKGHGTPTGVYSIFSMDKDRYLRGDGYKSWVNFFVPFNGGIGFHDASWRSTFGGNIYLYSGSHGCINMPYSEVKKLFANVSMGETVIVYGGATSVDGKEQSFTGQDAYSVTEGDASFNLGVTAQDNAKLTYVSDNEWVAKVDESGNVTPVGVGTATITVKSEATAGYRAGTKTITVTVNAKAQPQVQPQKPAQQQPQKPAQQQQPQKPAAKKDASVNVSESDVSLEINGTKKINISVSSDTGATVEVESGDASVATLDSNGNIVAKNEGQVTYKVYTKATGSYNASNVSYVTIKVSKPAEPDDSGADADRE
MGSDKIHHHHHHLVSDNMVLQQATKVRLWGNATPNSSLKVRSSWDNTEYTAQVNDQGRWEIWVQTPSASFEKQQLTLKNGQDKIVLHDLLIGEVWFGSGQSNMEMPLRGFWHCPIEGGNHAIATSGKYKNSIRYATIQRVGALEPKDYPVGGEWKVCDPRNAPEFGATAYFFATLLTEVLNVPVGIINCSWGGSTVEGWLPKDILRNYSDIDLSLAGNDEKIHPMLQPMIMYNGMLKPASKYTVRGFLWYQGESNVGHPDYAKRLATMVEHWRGLWGQEELPFYLVEIAPYEYGEGDQAAYLREEQYKATRLIPNSGIVSTNDLVQDYEKRQIHPKEKQKIGERLCYMALNKTYGYTTIACEGPQYDHMEVDKDKIILFFKNAEDGFNRDNGIIGFEIAGKDMRFHKANATIDANKKTVIISAPDVKAPIAVRYGFRNFQIGNLQNVQGLPVLPFRTDK
MGSDKIHHHHHHMAAKIITVFNQKGGCGKTTVSMHLAGTLGLRGARSMLVDMDEQGTATRWAAQASDERPFPASVIGLAPSGGAMHREVRKFVQDYDYIVVDCPPAVHSAAPSSALLISDLAIIPVVPSPPDLWAAVAAKTLAQHAQVQNETLLIRVMANMVQRRVSIARQAIEILGDDGEVPLLNSMIGSRSAFRECQAIGCTVHGVAGAREAVQEVDMMVDEVLSLIEH
MGSDKIHHHHHHMAATFKMVGVIRFSLLTPTFNADRYPDLEAAAAAIFAPDRMALRLHLFETLCLPSLVRQSDAAFHLVVATSDRLPAVILQHLQALLAPHDHMQLIQFAPENHYQILKEAYRAVPQQGESHRILFRLDDDDALDRHYVARCKRLAAGLVPLQTEAVSPIALAFNRGYYLIREEGQPPVVMDSCERAPLSAGTALVQPIAARGNPYRYNHRKFAQHYTLYSDISVPSFVRTVHGDNHSTPAMMGLTARQSDAEMDADLQRHFDLSLSDLKAI
MGSDKIHHHHHHMAATPRKLSSKEVAALVGNLMEASESTSLENGLEVRPYAFGENELNQLGDYHALRIINERFCRTARDVFLPMLRLQPRISSFPPEVRSFDDYRSSQDNFVSITASRIEELRGNQMIVIPPPFISLLTDSYYGGQIRHVPTTRTEFTATEERVIELVTDRLNVALQVAWRDLMALTFTVVSREESMQFASFVDGEDMVVNCSFMVQLPNTEPASFDILYPLQTLKPISSQLRSRMQSDFVDDDRSWREKLERAILSIPLTLSARLCEPEVPLRQLMQMQPGDVLPVHLTEAVSLLVEGQPIFEAAPGERGGQAALNLTRRHVRS
MGSDKIHHHHHHMADNLALRMRPRNINEVIGQQHLVGNGKIIDRMVAANMLSSMILYGPPGIGKTSIASAIAGTTKYAFRTFNATVDSKKRLQEIAEEAKFSGGLVLLLDEIHRLDKTKQDFLLPLLENGNIIMIGATTENPFFSVTPAIRSRVQIFELEPLSNEDIKKAIQLAISDKERGFPFLVTIDDEALDFIVTATNGDLRSAYNSLDLAVMSTSPNEDGSRHISLETMENSLQCSYITMDKNGDGHYDILSALQKSIRGSDVNASLHYAARLVEAGDLPSLARRLTIIAYEDIGLANPEAQIHTVTALEAAQRIGFPEARILIANIVVDLALSPKSNSAYLAMDAALADLRRSGNLPIPRHLRDGHYSGSKTLGNARDYKYPHAYPEKWVKQQYLPDKLVGHNYFEANETGKYERALGSNKERIDKLSD
MGSDKIHHHHHHMADWTDNLPEAAQAYLENRRLDEVECIISDLPGIARGKAVPASKFARQDYFHLPDSIFYQTITGDWGDAAGEEGFIERDMILRPDYSTATAAPWTGDWTLQVIHDAYDRDGDPIPFSPRNVLRRVVSLYHAQGWKPVVAPEMEFFLVARNLDPAKEIEPMMGRSGRPAAARQAYSMTAVDEFGPVIDDIYDFAEAQGFEIDGITQEGGAGQLEINLRHGSPVRLADEVFYFKRLIREAALRHNCFATFMAKPIENEPGSAMHIHHSIVDMETGENIFSGPQGGETDAFYHFIAGLQNHLPSGLAVMAPYVNSYRRYVKDHAAPINLEWGRDNRTTGIRVPLSGPAARRIENRLAGMDCNPYLGIAVSLACGYLGLMEELRPRKQFKGDAYVGEGDIPQVMGDALDLFDEAKALHEVLGPEFARVYSIVKRAEYNEFLQVISPWEREHLLMNV
